Where “and” joins values, the source holds several entries; their conditions need not be identical. Equal values may be shown once.
Assays:
Conditions in all cases: both partners purified
[1] = molecular target: T1, MDM2, recombinant from E. coli (UniProt Q00987 1-491); assay: ITC; protein (around 20 µM, 0.2 ml) in the sample cell, peptide (around 200 µM) in the syringe; 25 °C; first injection 0.4 µl, then 19 injections of 2 µl
T1 construct: E3 ligase MDM2; Plasmid bought from GenScript; also called E3 ligase MDM2; pET‐28a (MDM2)
T1 sequence (Q00987 whole entry): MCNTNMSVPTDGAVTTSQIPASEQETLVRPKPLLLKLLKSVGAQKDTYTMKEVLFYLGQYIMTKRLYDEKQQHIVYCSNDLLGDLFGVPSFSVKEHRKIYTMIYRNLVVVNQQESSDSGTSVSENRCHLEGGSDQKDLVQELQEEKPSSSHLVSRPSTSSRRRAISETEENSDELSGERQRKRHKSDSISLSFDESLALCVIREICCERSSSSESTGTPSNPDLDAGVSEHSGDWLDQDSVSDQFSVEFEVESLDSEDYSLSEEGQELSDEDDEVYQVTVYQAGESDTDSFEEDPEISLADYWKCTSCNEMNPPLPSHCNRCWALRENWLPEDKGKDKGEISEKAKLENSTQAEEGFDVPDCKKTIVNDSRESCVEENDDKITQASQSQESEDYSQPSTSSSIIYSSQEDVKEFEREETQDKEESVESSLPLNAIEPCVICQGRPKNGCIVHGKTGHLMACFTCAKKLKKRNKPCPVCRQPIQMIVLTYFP

MDMX = molecular target: T2, MDMX (UniProt O15151 1-490); assay: as above
T2 construct: MDMX; MDMX is not in the methods' list of proteins made in E. coli
T2 sequence (looked up): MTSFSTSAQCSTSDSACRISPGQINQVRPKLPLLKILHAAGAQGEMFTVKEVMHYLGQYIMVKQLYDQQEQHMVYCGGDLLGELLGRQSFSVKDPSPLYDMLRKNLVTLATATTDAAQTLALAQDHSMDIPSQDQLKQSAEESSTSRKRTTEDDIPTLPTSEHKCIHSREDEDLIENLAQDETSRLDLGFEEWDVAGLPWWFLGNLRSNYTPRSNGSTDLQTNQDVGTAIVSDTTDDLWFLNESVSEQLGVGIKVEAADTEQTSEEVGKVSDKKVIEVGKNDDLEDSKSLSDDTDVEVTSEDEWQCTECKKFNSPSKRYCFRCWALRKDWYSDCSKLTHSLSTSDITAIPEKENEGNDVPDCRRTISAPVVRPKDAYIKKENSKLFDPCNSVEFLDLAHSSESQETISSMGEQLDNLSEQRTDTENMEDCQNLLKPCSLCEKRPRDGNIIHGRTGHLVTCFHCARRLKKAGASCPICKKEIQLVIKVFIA

[2] = molecular target: T3, Androgen receptor splice variant‐7 (AR‐V7), recombinant from E. coli (UniProt P10275-3 1-644); assay: as above
T3 construct: Plasmid bought from GenScript; also called pET‐28a (AR – V7); pET28‐AR‐V7; not shown: His tag (from the vector pET‐28a)
T3 sequence (looked up): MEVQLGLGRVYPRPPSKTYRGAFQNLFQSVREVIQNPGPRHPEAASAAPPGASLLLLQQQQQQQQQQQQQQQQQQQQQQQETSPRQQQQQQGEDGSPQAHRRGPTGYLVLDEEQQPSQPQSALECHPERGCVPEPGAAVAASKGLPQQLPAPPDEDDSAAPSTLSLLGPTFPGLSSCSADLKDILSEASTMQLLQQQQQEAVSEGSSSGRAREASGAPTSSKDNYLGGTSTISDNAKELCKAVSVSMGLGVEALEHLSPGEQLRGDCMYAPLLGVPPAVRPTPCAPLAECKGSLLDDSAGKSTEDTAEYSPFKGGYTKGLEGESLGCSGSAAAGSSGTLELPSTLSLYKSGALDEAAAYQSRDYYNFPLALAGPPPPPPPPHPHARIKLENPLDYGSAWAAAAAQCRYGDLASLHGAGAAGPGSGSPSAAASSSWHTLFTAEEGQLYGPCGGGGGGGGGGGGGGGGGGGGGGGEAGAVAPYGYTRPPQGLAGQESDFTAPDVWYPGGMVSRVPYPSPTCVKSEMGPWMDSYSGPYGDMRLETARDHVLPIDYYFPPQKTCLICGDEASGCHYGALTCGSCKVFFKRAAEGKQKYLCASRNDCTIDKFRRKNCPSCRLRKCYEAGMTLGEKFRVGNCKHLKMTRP

[3] = molecular target: T4, AR DBD domain protein, labeled with rhodamine B (rhodamine B label); assay: fluorescence polarisation; rhodamine B labeled AR DBD, 200 nM of AR DBD dimer in complex with DNA, rising AR pep‐PROTAC concentration; maximum FP taken as 100% dimer, minimum as monomer
T4 chain: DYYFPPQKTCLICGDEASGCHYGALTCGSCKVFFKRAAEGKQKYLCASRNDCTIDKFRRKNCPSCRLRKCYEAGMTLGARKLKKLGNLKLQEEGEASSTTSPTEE

B1: AR pep‐PROTAC drug (designed peptide PROTAC) (peptide)
peptide: YLCSSNNNRERDKFRRGGSGGTSFEQFWAWLWP
notes: flexible linker; Free peptide in ITC and fluorescence polarisation; also called AR DBD PROTAC; AR DBD PROTAC drug; source: synthetic peptide (solid‐phase peptide synthesis, preparative HPLC)
Kd [1]: 0.0122 µM
Kd (MDMX): 1.43 µM
Kd [2]: 0.0496 µM and 0.0495 µM
EC50 [3]: 1.8 µM
